The supplement of paper PMC9112550, “Optimization of the antimicrobial peptide Bac7 by deep mutational scanning” (BMC Biology, 2022)

What follows are sequences tested on Escherichia coli TOP10 (assay: shrunken log2 fold change of peptide-encoding DNA abundance (4.5 h post-induction vs induction); higher = less antimicrobial activity (less host growth inhibition)). Conditions: time post-induction: 4.5 h; library: site-saturation at positions 5, 18, 19, 20.
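Also: peptides expressed intracellularly from a pBAD plasmid library in pooled LB shake-flask culture, induced with 0.3% L-arabinose, DNA abundance read by NGS, three biological replicates, DESeq2 with apeglm shrinkage.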

Sequence | shrunken log2 fold change
RRIRFRPPRLPRPRPRPETTPRP | 0.533
RRIRFRPPRLPRPRPRPEWEPRP | 0.00489
RRIRFRPPRLPRPRPRPEWIPRP | -0.0219
RRIRFRPPRLPRPRPRPEWPPRP | 0.459
RRIRFRPPRLPRPRPRPEYLPRP | -0.203
RRIRFRPPRLPRPRPRPFDAPRP | -0.0477
RRIRFRPPRLPRPRPRPFDDPRP | -0.488
RRIRFRPPRLPRPRPRPFEIPRP | -0.0265
RRIRFRPPRLPRPRPRPFGIPRP | -0.197
RRIRFRPPRLPRPRPRPFGLPRP | -0.635
RRIRFRPPRLPRPRPRPFHFPRP | -0.532
RRIRFRPPRLPRPRPRPFIIPRP | -0.816
RRIRFRPPRLPRPRPRPFKDPRP | -0.112
RRIRFRPPRLPRPRPRPFMAPRP | -0.417
RRIRFRPPRLPRPRPRPFMRPRP | 0.559
RRIRFRPPRLPRPRPRPFNEPRP | -0.322
RRIRFRPPRLPRPRPRPFNNPRP | -0.262
RRIRFRPPRLPRPRPRPFNPPRP | -0.733
RRIRFRPPRLPRPRPRPFPKPRP | 0.00183
RRIRFRPPRLPRPRPRPFRSPRP | -0.0534
RRIRFRPPRLPRPRPRPFRWPRP | 0.178
RRIRFRPPRLPRPRPRPFSGPRP | -0.0879
RRIRFRPPRLPRPRPRPFSKPRP | 0.033
RRIRFRPPRLPRPRPRPFTLPRP | 0.0331
RRIRFRPPRLPRPRPRPFVIPRP | -0.479

Sequence | shrunken log2 fold change
RRIRFRPPRLPRPRPRPFVVPRP | -0.219
RRIRFRPPRLPRPRPRPFWKPRP | -0.0963
RRIRFRPPRLPRPRPRPFYKPRP | -0.311
RRIRFRPPRLPRPRPRPGCEPRP | 0.187
RRIRFRPPRLPRPRPRPGCHPRP | -0.141
RRIRFRPPRLPRPRPRPGDGPRP | 0.264
RRIRFRPPRLPRPRPRPGDMPRP | -0.311
RRIRFRPPRLPRPRPRPGEFPRP | -0.239
RRIRFRPPRLPRPRPRPGESPRP | -0.00672
RRIRFRPPRLPRPRPRPGFIPRP | -0.257
RRIRFRPPRLPRPRPRPGGQPRP | 0.0786
RRIRFRPPRLPRPRPRPGGSPRP | -0.0392
RRIRFRPPRLPRPRPRPGKAPRP | 0.0429
RRIRFRPPRLPRPRPRPGKLPRP | -0.0682
RRIRFRPPRLPRPRPRPGKVPRP | -0.216
RRIRFRPPRLPRPRPRPGLAPRP | 0.344
RRIRFRPPRLPRPRPRPGMEPRP | 0.0216
RRIRFRPPRLPRPRPRPGMTPRP | -0.142
RRIRFRPPRLPRPRPRPGMWPRP | 0.231
RRIRFRPPRLPRPRPRPGMYPRP | -0.076
RRIRFRPPRLPRPRPRPGPKPRP | 0.066
RRIRFRPPRLPRPRPRPGPNPRP | -0.0666
RRIRFRPPRLPRPRPRPGPQPRP | 0.447
RRIRFRPPRLPRPRPRPGQDPRP | -0.0452
RRIRFRPPRLPRPRPRPGQWPRP | -0.00218

Sequence | shrunken log2 fold change
RRIRFRPPRLPRPRPRPGRAPRP | 0.712
RRIRFRPPRLPRPRPRPGRDPRP | 0.0984
RRIRFRPPRLPRPRPRPGRKPRP | 0.107
RRIRFRPPRLPRPRPRPGSAPRP | 0.182
RRIRFRPPRLPRPRPRPGSQPRP | -0.117
RRIRFRPPRLPRPRPRPGSYPRP | -0.0318
RRIRFRPPRLPRPRPRPGTIPRP | -0.173
RRIRFRPPRLPRPRPRPGWVPRP | 0.176
RRIRFRPPRLPRPRPRPHAAPRP | 0.062
RRIRFRPPRLPRPRPRPHDAPRP | 0.293
RRIRFRPPRLPRPRPRPHDHPRP | -0.508
RRIRFRPPRLPRPRPRPHFNPRP | -0.692
RRIRFRPPRLPRPRPRPHFRPRP | -0.634
RRIRFRPPRLPRPRPRPHGFPRP | -0.105
RRIRFRPPRLPRPRPRPHHQPRP | -0.963
RRIRFRPPRLPRPRPRPHIWPRP | -0.57
RRIRFRPPRLPRPRPRPHKKPRP | -0.369
RRIRFRPPRLPRPRPRPHNNPRP | -0.638
RRIRFRPPRLPRPRPRPHSFPRP | 0.00365
RRIRFRPPRLPRPRPRPHSNPRP | -0.84
RRIRFRPPRLPRPRPRPHTIPRP | -0.745
RRIRFRPPRLPRPRPRPHVLPRP | -0.286
RRIRFRPPRLPRPRPRPHVPPRP | -0.315
RRIRFRPPRLPRPRPRPHVVPRP | -0.0249
RRIRFRPPRLPRPRPRPHWPPRP | 0.251

Sequence | shrunken log2 fold change
RRIRFRPPRLPRPRPRPHYCPRP | -0.197
RRIRFRPPRLPRPRPRPHYFPRP | -0.161
RRIRFRPPRLPRPRPRPHYPPRP | -0.178
RRIRFRPPRLPRPRPRPIADPRP | -0.0956
RRIRFRPPRLPRPRPRPICWPRP | -0.134
RRIRFRPPRLPRPRPRPICYPRP | 0.00889
RRIRFRPPRLPRPRPRPIDIPRP | 0.0578
RRIRFRPPRLPRPRPRPIDPPRP | -0.526
RRIRFRPPRLPRPRPRPIDSPRP | -0.401
RRIRFRPPRLPRPRPRPIFCPRP | -0.155
RRIRFRPPRLPRPRPRPIFTPRP | -0.128
RRIRFRPPRLPRPRPRPIGNPRP | -0.501
RRIRFRPPRLPRPRPRPIHCPRP | -0.138
RRIRFRPPRLPRPRPRPIHEPRP | -0.169
RRIRFRPPRLPRPRPRPIHKPRP | -0.775
RRIRFRPPRLPRPRPRPIHWPRP | -0.414
RRIRFRPPRLPRPRPRPIIKPRP | -0.696
RRIRFRPPRLPRPRPRPIKHPRP | -0.485
RRIRFRPPRLPRPRPRPILRPRP | -0.156
RRIRFRPPRLPRPRPRPIMWPRP | 0.0691
RRIRFRPPRLPRPRPRPINAPRP | 0.00976
RRIRFRPPRLPRPRPRPINRPRP | 0.0882
RRIRFRPPRLPRPRPRPIPAPRP | -0.15
RRIRFRPPRLPRPRPRPIQPPRP | 0.137
RRIRFRPPRLPRPRPRPIQYPRP | -0.451

Sequence | shrunken log2 fold change
RRIRFRPPRLPRPRPRPIRAPRP | -0.0742
RRIRFRPPRLPRPRPRPIRFPRP | -0.233
RRIRFRPPRLPRPRPRPIRRPRP | 0.0321
RRIRFRPPRLPRPRPRPIRSPRP | -0.0101
RRIRFRPPRLPRPRPRPISMPRP | -0.137
RRIRFRPPRLPRPRPRPITLPRP | -0.274
RRIRFRPPRLPRPRPRPITWPRP | -0.972
RRIRFRPPRLPRPRPRPIWNPRP | -0.147
RRIRFRPPRLPRPRPRPKARPRP | 0.297
RRIRFRPPRLPRPRPRPKAWPRP | 0.0254
RRIRFRPPRLPRPRPRPKCEPRP | 0.051
RRIRFRPPRLPRPRPRPKDHPRP | -0.179
RRIRFRPPRLPRPRPRPKDIPRP | -0.676
RRIRFRPPRLPRPRPRPKDKPRP | -0.223
RRIRFRPPRLPRPRPRPKERPRP | 0.193
RRIRFRPPRLPRPRPRPKFAPRP | 0.102
RRIRFRPPRLPRPRPRPKGHPRP | 0.0587
RRIRFRPPRLPRPRPRPKGLPRP | -0.146
RRIRFRPPRLPRPRPRPKGRPRP | -0.0884
RRIRFRPPRLPRPRPRPKHGPRP | 0.405
RRIRFRPPRLPRPRPRPKHRPRP | -0.094
RRIRFRPPRLPRPRPRPKHVPRP | -0.0891
RRIRFRPPRLPRPRPRPKIAPRP | -0.0112
RRIRFRPPRLPRPRPRPKKHPRP | -0.264
RRIRFRPPRLPRPRPRPKMAPRP | -0.0582

Sequence | shrunken log2 fold change
RRIRFRPPRLPRPRPRPKMEPRP | -0.028
RRIRFRPPRLPRPRPRPKMKPRP | 0.0379
RRIRFRPPRLPRPRPRPKNEPRP | -0.137
RRIRFRPPRLPRPRPRPKPRPRP | 0.886
RRIRFRPPRLPRPRPRPKQNPRP | 0.249
RRIRFRPPRLPRPRPRPKRAPRP | 0.244
RRIRFRPPRLPRPRPRPKRFPRP | 0.0111
RRIRFRPPRLPRPRPRPKRLPRP | 0.0144
RRIRFRPPRLPRPRPRPKRMPRP | 0.133
RRIRFRPPRLPRPRPRPKRSPRP | 1.12
RRIRFRPPRLPRPRPRPKSGPRP | 0.0565
RRIRFRPPRLPRPRPRPKSQPRP | -0.0404
RRIRFRPPRLPRPRPRPKSRPRP | -0.0938
RRIRFRPPRLPRPRPRPKTCPRP | 0.0353
RRIRFRPPRLPRPRPRPKTQPRP | 0.397
RRIRFRPPRLPRPRPRPKTTPRP | 0.142
RRIRFRPPRLPRPRPRPKWHPRP | -0.0786
RRIRFRPPRLPRPRPRPKYHPRP | -0.428
RRIRFRPPRLPRPRPRPKYIPRP | -0.678
RRIRFRPPRLPRPRPRPKYTPRP | -0.657
RRIRFRPPRLPRPRPRPLAQPRP | 0.097
RRIRFRPPRLPRPRPRPLCYPRP | -0.557
RRIRFRPPRLPRPRPRPLDEPRP | -0.132
RRIRFRPPRLPRPRPRPLDPPRP | 0.0688
RRIRFRPPRLPRPRPRPLEVPRP | 0.0238
